{"source": "the RNAGym collection of RNA variant scans (doi:10.1021/acssynbio.7b00057)", "parents": {"B1": {"name": "Pistol ribozyme (parent)", "chain": "GGGUCGUUGUUCCAUAAUCGCGUGGAUAUGGCACGCAAGUUUCUACCGGGCACCGUAAAUGUCCGACUGGAGCCGUUCGGGCGGCUAUAAACAGACCUCAGGCCCGAAGCGUGGCGGCACCUGCCGCCGGUGGUAAAAAAGAUCGGAAGAGCACACGUCU"}}}
{"variants_of": "B1", "assay": "aptazyme ON/OFF ratio, guanine; higher = stronger switching; co-transcriptional cleavage with and without guanine"}
{"variant": "U7G U8A G9C U10C C12G", "aptazyme ON/OFF ratio": 1.07}
{"variant": "U7A U8C G9U C12A", "aptazyme ON/OFF ratio": 1.26}
{"variant": "U8A G9C C12A C13U", "aptazyme ON/OFF ratio": 1.25}
{"variant": "U7C G9A U10G C13G", "aptazyme ON/OFF ratio": 1.02}
{"variant": "U8C G9C U11G C13A", "aptazyme ON/OFF ratio": 1.09}
{"variant": "U7G U8G G9A U10C U11G C12A", "aptazyme ON/OFF ratio": 1.15}
{"variant": "U7G G9C U10C U11C C13A", "aptazyme ON/OFF ratio": 1.05}
{"variant": "U7C U8G G9C U10G U11A C13U", "aptazyme ON/OFF ratio": 1.16}
{"variant": "U7A U8A U10C", "aptazyme ON/OFF ratio": 3.05}
{"variant": "U7A G9U U11G", "aptazyme ON/OFF ratio": 1.36}
{"variant": "U7A G9C U10G C12A C13U", "aptazyme ON/OFF ratio": 1.09}
{"variant": "U7A U8A U10C U11A C12U C13G", "aptazyme ON/OFF ratio": 1.1}
{"variant": "U7G U8C G9U U10G C12U C13G", "aptazyme ON/OFF ratio": 1.39}
{"variant": "U8C U11A C12U", "aptazyme ON/OFF ratio": 1.19}
{"variant": "U7A U8C G9A U10C C12U C13U", "aptazyme ON/OFF ratio": 1.26}
{"variant": "U10G U11G C12A", "aptazyme ON/OFF ratio": 1.37}
{"variant": "U7A U8G G9A U10C U11C C12A", "aptazyme ON/OFF ratio": 1.13}
{"variant": "U8A G9C U10G U11A C12U C13G", "aptazyme ON/OFF ratio": 1.11}
{"variant": "U7A U8A G9C U11A C12U", "aptazyme ON/OFF ratio": 1.2}
{"variant": "U7C U8A C12U C13G", "aptazyme ON/OFF ratio": 1.28}
{"variant": "U7C G9C U10G U11C C12U C13U", "aptazyme ON/OFF ratio": 1.16}
{"variant": "U7A U8A G9U U10C C12A C13A", "aptazyme ON/OFF ratio": 1.11}
{"variant": "U7G U8A G9C U11A C12U C13G", "aptazyme ON/OFF ratio": 1.03}
{"variant": "U7G U8G G9U U10A U11G C13U", "aptazyme ON/OFF ratio": 1.12}
{"variant": "G9C U11G C12G", "aptazyme ON/OFF ratio": 1.27}
{"variant": "U7G U8G G9U U10G C13A", "aptazyme ON/OFF ratio": 1.27}
{"variant": "G9C U10G U11C C12A C13U", "aptazyme ON/OFF ratio": 1.25}
{"variant": "U7C G9C U10G C12G C13G", "aptazyme ON/OFF ratio": 1.07}
{"variant": "U7C U8G G9U U10G U11C C12U C13A", "aptazyme ON/OFF ratio": 1.13}
{"variant": "U7C G9A U10G C12G C13A", "aptazyme ON/OFF ratio": 1.14}
{"variant": "U7A U8A G9U U11A", "aptazyme ON/OFF ratio": 0.956}
{"variant": "U7A U8C G9A U10G", "aptazyme ON/OFF ratio": 1.37}
{"variant": "U7C U8C G9U U10A U11C C12U C13G", "aptazyme ON/OFF ratio": 1.14}
{"variant": "U8C G9C U11G C12A C13A", "aptazyme ON/OFF ratio": 1.09}
{"variant": "U7A U8A G9A U11G C12G C13A", "aptazyme ON/OFF ratio": 1.16}
{"variant": "U7C U8A G9C U11G C12G C13G", "aptazyme ON/OFF ratio": 1.07}
{"variant": "U7G U8C G9C U10A C13U", "aptazyme ON/OFF ratio": 1.07}
{"variant": "G9A U10C U11G", "aptazyme ON/OFF ratio": 1.86}
{"variant": "U7A U8A G9C U10A C12G C13U", "aptazyme ON/OFF ratio": 1.16}
{"variant": "U7A U8C G9A U10A U11A C12U C13G", "aptazyme ON/OFF ratio": 1.11}
{"variant": "U8C U11C C12G C13U", "aptazyme ON/OFF ratio": 1.36}
{"variant": "G9C U11G C12G C13A", "aptazyme ON/OFF ratio": 1.24}
{"variant": "U7A U8C G9C C12U C13U", "aptazyme ON/OFF ratio": 1.14}
{"variant": "U7C G9A U10A U11G C12A C13G", "aptazyme ON/OFF ratio": 1.11}
{"variant": "U7A U8C G9C C12A", "aptazyme ON/OFF ratio": 1.12}
{"variant": "U8A U10A U11G C12U C13G", "aptazyme ON/OFF ratio": 1.45}
{"variant": "U7G U8A G9A U10G C12U", "aptazyme ON/OFF ratio": 1.52}
{"variant": "U7A G9C U11A C12U C13A", "aptazyme ON/OFF ratio": 1.1}
{"variant": "U8G G9U U10A C13G", "aptazyme ON/OFF ratio": 1.06}
{"variant": "U7A U10C U11A C12A C13A", "aptazyme ON/OFF ratio": 1.21}
{"variant": "U7G U8C G9A U11G C12A C13U", "aptazyme ON/OFF ratio": 1.12}
{"variant": "U7C U8C G9A U11C C13A", "aptazyme ON/OFF ratio": 1.22}
{"variant": "G9A U10G U11G C12A C13U", "aptazyme ON/OFF ratio": 1.25}
{"variant": "U7C G9A U10C U11G C12U C13U", "aptazyme ON/OFF ratio": 1.32}
{"variant": "U7G U8A U11A C13U", "aptazyme ON/OFF ratio": 1.4}
{"variant": "U7C U8A G9C U11C C12A C13G", "aptazyme ON/OFF ratio": 1.07}
{"variant": "U7A U8C G9U U10C U11A C12A C13U", "aptazyme ON/OFF ratio": 1.12}
{"variant": "U7G U8G U10C C12G C13A", "aptazyme ON/OFF ratio": 1.4}
{"variant": "U8C G9U U10G C13U", "aptazyme ON/OFF ratio": 1.67}
{"variant": "U7A G9C U10A U11G C13A", "aptazyme ON/OFF ratio": 1.03}
{"variant": "U7C U8C U11C C12U", "aptazyme ON/OFF ratio": 1.34}
{"variant": "U7A U8C U11A C12U C13A", "aptazyme ON/OFF ratio": 1.15}
{"variant": "U8C U10C U11C C12G", "aptazyme ON/OFF ratio": 1.18}
{"variant": "U8C G9U U10A C13G", "aptazyme ON/OFF ratio": 1.06}
{"variant": "U7G U8C U10C C12A C13U", "aptazyme ON/OFF ratio": 1.24}
{"variant": "U7A G9C U10C U11G C12A C13G", "aptazyme ON/OFF ratio": 1.05}
{"variant": "U7G U8A G9A U10A U11A C12A C13G", "aptazyme ON/OFF ratio": 1.04}
{"variant": "U7G U8C G9A U11G C12A C13A", "aptazyme ON/OFF ratio": 1.1}
{"variant": "U7G U8C U10C C12G C13U", "aptazyme ON/OFF ratio": 1.28}
{"variant": "U8C G9C U10C U11A C12G C13A", "aptazyme ON/OFF ratio": 1.06}
{"variant": "U10C U11C C12G C13A", "aptazyme ON/OFF ratio": 1.17}
{"variant": "U7C U8A G9U U10A U11C C12U C13A", "aptazyme ON/OFF ratio": 1.14}
{"variant": "U7G G9U U10C C13A", "aptazyme ON/OFF ratio": 1.37}
{"variant": "U7C U8A G9A U10G U11C C12U C13A", "aptazyme ON/OFF ratio": 1.15}
{"variant": "G9C U11G C12U C13G", "aptazyme ON/OFF ratio": 1.25}
{"variant": "U8A G9C U10A U11G C12U C13A", "aptazyme ON/OFF ratio": 1.17}
{"variant": "U7C U8A G9C U10C C13U", "aptazyme ON/OFF ratio": 1.23}
{"variant": "U7G U8G G9A U10A U11C C12U C13G", "aptazyme ON/OFF ratio": 1.17}
{"variant": "U7G G9C U10A U11G C13G", "aptazyme ON/OFF ratio": 1.14}
{"variant": "U8A G9A U11A C12A C13G", "aptazyme ON/OFF ratio": 1.25}
{"variant": "U8A G9C U10G U11A C13A", "aptazyme ON/OFF ratio": 1.03}
{"variant": "U7G U10A U11G C12G C13U", "aptazyme ON/OFF ratio": 1.63}
{"variant": "U7C U10G C12A C13A", "aptazyme ON/OFF ratio": 1.15}
